{"source": "patent US6653533", "about": "“Nucleic acids encoding proteins with pathogen resistance activity and plants transformed therewith” (Purdue Research Foundation)", "binders": {"B1": {"name": "wild type gln2 PR-box 2x (dsDNA)", "DNA 1": "CATAAGAGCCGCCACTAAAATAAGACCGATCAAATAAGAGCCGCCAT", "DNA 2": "ATGGCGGCTCTTATTTGATCGGTCTTATTTTAGTGGCGGCTCTTATG"}, "B2": {"name": "mutated PR-box 2x (dsDNA)", "DNA 1": "B1 DNA 1 with G8T, G11T, G40T, G43T", "DNA 2": "B1 DNA 2 with C5A, C8A, C37A, C40A"}}, "key": {"[1]": {"target": "T1, Pti6 (Lycopersicon esculentum, UniProt O04682 SEQ:1-248)", "T1 sequence (O04682 whole entry, the tested form may be a part)": "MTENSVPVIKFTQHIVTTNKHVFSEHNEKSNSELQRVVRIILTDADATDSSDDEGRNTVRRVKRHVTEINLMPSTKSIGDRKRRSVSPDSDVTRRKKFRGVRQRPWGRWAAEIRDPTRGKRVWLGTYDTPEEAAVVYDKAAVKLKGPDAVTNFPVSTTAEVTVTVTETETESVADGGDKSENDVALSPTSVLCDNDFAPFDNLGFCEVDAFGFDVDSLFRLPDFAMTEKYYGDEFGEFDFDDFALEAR", "assay": "EMSA; 4 fmol probe, poly(dA-dT), 25 mM Hepes pH 7.5, 40 mM KCl, room temperature", "settings": "tags: GST fusion (pGEX), E. coli PR745; label: 32P end label", "experimental": "(§1) The wild type gln2 PR-box 2× ([…] […])(SEQ ID NO:17) and mutated PR-box 2× ([…] […]) (SEQ ID NO:18) were end-labeled by 32P as described by Ausubel, F. M., Brent, R., Kingston, R. E., Moore, D. D., Seidman, J. G., Smith, J. A., and Struhl, K. (1994). Current Protocols in Molecular Biology. (New York: Greene Publish Associates/John Wiley and Sons). Four fmol of probe was mixed with each of the purified GST-fusion proteins in a buffer containing 2 μg poly(dA-dT) (dA-dT), 25 mM Hepes (PH7.5), 40 mM KCl, 0.1 mM EDTA, 10% glycerol, and 1 mM DTT, incubated at room temperature for 15 minutes, and electrophoresed on a 4% polyacrylamide gel in 0.25×TBE buffer. Ohme-Takagi, M. and Shinshi, H. (1995). Ethylene-inducible DNA-binding proteins that interact with an ethylene-responsive element. Plant Cell 7, 173–182. The gel was subsequently dried and exposed to x-ray film. […] In contrast to GST-Pti5 and GST-Pti6, neither GST-Pti1 nor GST itself bound to the PR-box."}, "[2]": {"target": "T2, Pti5 (Lycopersicon esculentum, UniProt O04681 SEQ:1-161)", "T2 sequence (O04681 other isoform, or with tags, fused parts or gaps)": "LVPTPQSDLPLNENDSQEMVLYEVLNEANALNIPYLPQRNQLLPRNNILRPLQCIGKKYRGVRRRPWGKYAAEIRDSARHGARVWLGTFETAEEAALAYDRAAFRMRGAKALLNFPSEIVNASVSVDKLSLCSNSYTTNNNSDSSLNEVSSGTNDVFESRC", "assay": "EMSA; 4 fmol probe, poly(dA-dT), 25 mM Hepes pH 7.5, 40 mM KCl, room temperature", "settings": "tags: GST fusion (pGEX), E. coli PR745; label: 32P end label", "experimental": "as §1"}, "[3]": {"target": "T3, Pti1 (Lycopersicon esculentum, UniProt Q41328 Q41328:1-354)", "T3 sequence": "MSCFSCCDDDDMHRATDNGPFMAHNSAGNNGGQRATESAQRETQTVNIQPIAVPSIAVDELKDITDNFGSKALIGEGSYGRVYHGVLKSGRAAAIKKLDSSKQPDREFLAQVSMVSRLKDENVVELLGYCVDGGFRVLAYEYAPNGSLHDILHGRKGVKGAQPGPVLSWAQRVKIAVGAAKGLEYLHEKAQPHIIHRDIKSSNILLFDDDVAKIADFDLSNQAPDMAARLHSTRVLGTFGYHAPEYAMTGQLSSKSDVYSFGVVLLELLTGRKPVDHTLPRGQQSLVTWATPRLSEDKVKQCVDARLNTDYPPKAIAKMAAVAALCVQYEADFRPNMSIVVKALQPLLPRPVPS", "assay": "EMSA; negative control protein", "settings": "tags: GST fusion; label: 32P end label", "experimental": "as §1"}, "[4]": {"target": "GST (UniProt P08515 P08515:1-218)", "sequence (P08515 whole entry, one chain of several)": "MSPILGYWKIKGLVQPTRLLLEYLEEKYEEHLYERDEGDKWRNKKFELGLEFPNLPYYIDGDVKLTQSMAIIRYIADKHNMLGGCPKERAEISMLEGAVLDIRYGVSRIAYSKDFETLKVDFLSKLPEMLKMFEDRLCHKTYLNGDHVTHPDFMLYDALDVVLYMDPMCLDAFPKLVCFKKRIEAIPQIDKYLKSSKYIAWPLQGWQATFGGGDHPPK", "assay": "EMSA; negative control protein", "settings": "tags: GST alone; label: 32P end label", "experimental": "as §1"}, "[5]": {"target": "T1, Pti6", "assay": "EMSA; no binding detected; same buffer", "settings": "tags: GST fusion (pGEX), E. coli PR745; label: 32P end label", "experimental": "as §1"}, "[6]": {"target": "T2, Pti5", "assay": "EMSA; no binding detected; same buffer", "settings": "tags: GST fusion (pGEX), E. coli PR745; label: 32P end label", "experimental": "as §1"}}, "note": "Numbering of substitutions follows the chain as printed."}
{"binder": "B1", "values": [{"measurement": "binding result", "setting": "[1]", "value": "binds"}, {"measurement": "binding result", "setting": "[2]", "value": "binds"}, {"measurement": "binding result", "setting": "[3]", "value": "no binding"}, {"measurement": "binding result", "setting": "[4]", "value": "no binding"}]}
{"binder": "B2", "values": [{"measurement": "binding result", "setting": "[5]", "value": "no binding"}, {"measurement": "binding result", "setting": "[6]", "value": "no binding"}]}
